# B1: CYP76AH1 probe (dsDNA)
# DNA 1: TATAATAGAACATTTGGGCGATGCTATATAATAGAACATTTGGGCGATGCTA
# DNA 2: TAGCATCGCCCAAATGTTCTATTATATAGCATCGCCCAAATGTTCTATTATA
# B2: DXS2 probe (dsDNA)
# DNA 1: TAAATCCTGACATTTGAATAGTATATTAAATCCTGACATTTGAATAGTATAT
# DNA 2: ATATACTATTCAAATGTCAGGATTTAATATACTATTCAAATGTCAGGATTTA
# B3: KSL1 probe (dsDNA)
# DNA 1: TGCATCATCTCATTTGGAGTTTAAAATGCATCATCTCATTTGGAGTTTAAAA
# DNA 2: TTTTAAACTCCAAATGAGATGATGCATTTTAAACTCCAAATGAGATGATGCA
# B4: CPS1 probe (dsDNA)
# DNA 1: AATCATTTTTCATTTGACTGCCAAGGTAATCATTTTTCATTTGACTGCCAAGGT
# DNA 2: ACCTTGGCAGTCAAATGAAAAATGATTACCTTGGCAGTCAAATGAAAAATGATT
# Target: bHLH130-His (SmbHLH130) (Salvia miltiorrhiza, UniProt A0A0H3Y8V8 1-394)
# Test: EMSA
row,Binder,binding result
1,B1,binds
2,B2,binds
3,B3,binds
4,B4,binds

# Reference: paper PMC13031064
